The nature of this data set: self-splicing fitness, log relative to wild type (ln ratio); higher = more splicing; Tetrahymena group I intron in knt gene, E. coli kanamycin selection, DiMSum; sequences stand for … in CUCUCU…GGAGGGAAAAGUUAUCAGGCAUGCACCUGGUAGCUAGUCUUUAAACCAAUAGAUUGCAUCGGUUUAAAAGGCAAGACCGUCAAAUUGCGGGAAAGGGGUCAACAGCCGUUCAGUACCAAGUCUCAGGGGAAACUUUGAGAUGGCCUUGCAAAGGGUAUGGUAAUAAGCUGACGGACAUGGUCCUAACCACGCAGCCAAGUCCUAAGUCAACAGAUCUUCUGUUGAUAUGGAUGCAGUUCACAGACUAAAUGUCGGUCGGGGAAGAUGUAUUCUUCUCAUAAGAUAUAGUCGGACCUCUCCUUAAUGGGAGCUAGCGGAUGAAGUGAUGCAACACUGGAGCCGCUGGGAACUAAUUUGUAUGCGAAAGUAUAUUGAUUAGUUUUGGAGUACUCGUGGUCG
The method, boiled down:
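Pooled colonies went to amplicon sequencing on an Illumina HiSeq 2500 after six replicate transformations. The plates were LB agar with 100 μg/mL carbenicillin, 50 μM IPTG and 0.2% rhamnose, with or without 25 μg/mL kanamycin, incubated overnight at 37°C or 30°C. The E. coli BL21(DE3) library had all eight P1ex-region intron nucleotides randomised, the intron placed in the knt kanamycin-resistance gene on pET-22b(+). DiMSum fitness is the error-weighted combination of replicate fold changes, kanamycin against none, normalised to wild type.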

± gives the uncertainty stated by the source.

For AAUUAGCAAUAUUACGGUCA, the “self-splicing fitness (ln)” value runs as follows: (30 °C) 0.31 ± 0.12; (37 °C) -0.629 ± 0.098. With CUUAAGCAAUAUUACGUGAU, the “self-splicing fitness (ln)” value is -2.63 ± 0.092 (30 °C) and -0.627 ± 0.093 (37 °C). Regarding UUUGAGCAAUAUUACGCGUG, the “self-splicing fitness (ln)” value was -2.33 ± 0.14 (30 °C) and -0.742 ± 0.12 (37 °C). Regarding CAGGAGCAAUAUUACGACUU, the “self-splicing fitness (ln)” value runs as follows: (30 °C) -1.48 ± 0.19; (37 °C) -0.618 ± 0.22. On the same counts, the results for AAUGAGCAAUAUUACGUGAG are -3.5 ± 0.23 and -1.78 ± 0.14. For the sequence CGAUAGCAAUAUUACGCGAC, the “self-splicing fitness (ln)” value was -2.59 ± 0.32 (30 °C) and -1.35 ± 0.28 (37 °C).

Consider UAGUAGCAAUAUUACGCAGU, for which the “self-splicing fitness (ln)” value is -2.65 ± 0.21 (30 °C) and -1.02 ± 0.14 (37 °C). In the same order, the values of CUGUAGCAAUAUUACGGUGG are -3.05 ± 0.14 and -1.49 ± 0.11. In the same order, the values of AACCAGCAAUAUUACGCGCC are -0.668 ± 0.1 and -0.521 ± 0.12.

Take GGCUAGCAAUAUUACGGCCG: the “self-splicing fitness (ln)” value (30 °C) was -1.45 ± 0.23 and the “self-splicing fitness (ln)” value (37 °C) is -0.656 ± 0.22. Turning to GCGCAGCAAUAUUACGUGAA, the “self-splicing fitness (ln)” value (30 °C) was 0.0716 ± 0.076 and the “self-splicing fitness (ln)” value (37 °C) was determined as 0.149 ± 0.074.

As to CCUAAGCAAUAUUACGAGUC, the “self-splicing fitness (ln)” value (30 °C) is -3.77 ± 0.22. On to GUAGAGCAAUAUUACGAAAU, for which the “self-splicing fitness (ln)” value is, setting by setting: (30 °C) -1 ± 0.15; (37 °C) -1.21 ± 0.17. On the same counts, the results for AGGGAGCAAUAUUACGGACA are -2.85 ± 0.35 and -2.56 ± 0.29. In the same order, the values of GCUGAGCAAUAUUACGUCGA are -1.34 ± 0.24 and -1.72 ± 0.24. As for GUGAAGCAAUAUUACGGCUG, the “self-splicing fitness (ln)” value reads like this: (30 °C) -0.541 ± 0.082; (37 °C) 0.0938 ± 0.11.

As for CUUUAGCAAUAUUACGAAAG, the “self-splicing fitness (ln)” value is, setting by setting: (30 °C) -3.18 ± 0.23; (37 °C) -1.7 ± 0.28.

Turning to CUCCAGCAAUAUUACGUCCG, the “self-splicing fitness (ln)” value is -2.63 ± 0.11 (30 °C) and -1.73 ± 0.12 (37 °C).

Turning to CGUAAGCAAUAUUACGGAAG, the “self-splicing fitness (ln)” value is -2.64 ± 0.19 (30 °C) and -1.41 ± 0.17 (37 °C). As to CACAAGCAAUAUUACGUUGC, the “self-splicing fitness (ln)” value is -3.28 ± 0.1 (30 °C) and -2.66 ± 0.13 (37 °C). In the case of UAGAAGCAAUAUUACGUAUU, the “self-splicing fitness (ln)” value by setting is: (30 °C) -2.3 ± 0.087; (37 °C) -2.22 ± 0.12.

In the case of GAGCAGCAAUAUUACGUCAU, the “self-splicing fitness (ln)” value is -2.38 ± 0.12 (30 °C) and -1.02 ± 0.13 (37 °C). Turning to UCGUAGCAAUAUUACGGAGU, the “self-splicing fitness (ln)” value (30 °C) was -2.81 ± 0.24. Take AAAGAGCAAUAUUACGUAAG: the “self-splicing fitness (ln)” value (30 °C) was -3.48 ± 0.18 and the “self-splicing fitness (ln)” value (37 °C) is -2.57 ± 0.22. In the same order, the values of CACCAGCAAUAUUACGAUAG are -0.377 ± 0.057 and 0.0494 ± 0.064. For CUGAAGCAAUAUUACGUUUC, the “self-splicing fitness (ln)” value (30 °C) is -2.72 ± 0.41. Consider CGUUAGCAAUAUUACGACGA, for which the “self-splicing fitness (ln)” value reads like this: (30 °C) -1.36 ± 0.19; (37 °C) -1.3 ± 0.19. In the case of AGACAGCAAUAUUACGAUUC, the “self-splicing fitness (ln)” value is -1.12 ± 0.08 (30 °C) and -0.569 ± 0.11 (37 °C). CGCUAGCAAUAUUACGCCCA: the “self-splicing fitness (ln)” value was -0.642 ± 0.11 (30 °C) and -0.0477 ± 0.14 (37 °C). In the same order, the values of GAUUAGCAAUAUUACGUUCC are -2.41 ± 0.3 and -1.59 ± 0.19.

On to ACUUAGCAAUAUUACGUUGG, for which the “self-splicing fitness (ln)” value (30 °C) is -1.67 ± 0.079 and the “self-splicing fitness (ln)” value (37 °C) was -1.05 ± 0.11.

As for CGAUAGCAAUAUUACGAUUA, the “self-splicing fitness (ln)” value is -1.59 ± 0.13 (30 °C) and -0.77 ± 0.15 (37 °C). Take UGUUAGCAAUAUUACGUGUC: the “self-splicing fitness (ln)” value is -3.15 ± 0.33 (30 °C) and -1.48 ± 0.28 (37 °C). On the same counts, the results for GGCAAGCAAUAUUACGUUUU are -0.0842 ± 0.054 and 0.186 ± 0.082. As to CUUCAGCAAUAUUACGCGUU, the “self-splicing fitness (ln)” value (30 °C) is -2.33 ± 0.12 and the “self-splicing fitness (ln)” value (37 °C) was -2.7 ± 0.21. GAUAAGCAAUAUUACGAACA: the “self-splicing fitness (ln)” value is, setting by setting: (30 °C) -1.02 ± 0.092; (37 °C) -0.468 ± 0.097. Take CACAAGCAAUAUUACGUAGA: the “self-splicing fitness (ln)” value is -1.83 ± 0.081 (30 °C) and -1.73 ± 0.11 (37 °C). On the same counts, the results for AGAGAGCAAUAUUACGUGGU are -3.49 ± 0.29 and -3.6 ± 0.37.

In the case of CGUGAGCAAUAUUACGCCGA, the “self-splicing fitness (ln)” value (37 °C) is -1.96 ± 0.41.

Values taken from the supplement of paper PMC7877785.
